Experimental findings from US20220332804A1 (CSL INNOVATION, published 2022) are described below.

Assay [1] concerns the target T1, cynomolgus monkey C2 (cynomolgus monkey, UniProt G8F3W0 21-752).
T1 sequence: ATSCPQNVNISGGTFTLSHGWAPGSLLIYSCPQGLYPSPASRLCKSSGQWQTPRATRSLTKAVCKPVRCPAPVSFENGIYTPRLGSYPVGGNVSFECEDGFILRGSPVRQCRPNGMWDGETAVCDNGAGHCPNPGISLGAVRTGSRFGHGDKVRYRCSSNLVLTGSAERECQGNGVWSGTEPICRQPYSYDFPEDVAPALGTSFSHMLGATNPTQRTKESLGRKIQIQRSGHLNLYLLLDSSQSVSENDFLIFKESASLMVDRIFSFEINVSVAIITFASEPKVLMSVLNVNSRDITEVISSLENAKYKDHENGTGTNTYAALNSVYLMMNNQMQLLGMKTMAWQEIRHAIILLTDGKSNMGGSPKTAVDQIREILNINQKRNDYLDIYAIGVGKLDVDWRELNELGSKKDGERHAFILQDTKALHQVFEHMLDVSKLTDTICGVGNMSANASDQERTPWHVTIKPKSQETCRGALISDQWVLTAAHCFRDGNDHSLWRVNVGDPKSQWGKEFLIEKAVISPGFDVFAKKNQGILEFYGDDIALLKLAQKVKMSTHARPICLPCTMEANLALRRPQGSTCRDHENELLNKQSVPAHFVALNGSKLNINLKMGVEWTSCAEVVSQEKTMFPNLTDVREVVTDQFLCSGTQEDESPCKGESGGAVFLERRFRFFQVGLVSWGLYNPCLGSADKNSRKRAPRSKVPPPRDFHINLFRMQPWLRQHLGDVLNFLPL
As to the kind of experiment: cell-based or functional assay.

In assay [2] the target is T2, human complement C2 (human, UniProt P06681 21-752).
T2 construct: Recombinant full-length human C2 with C-terminal 8x His tag, purified from Expi293F supernatant; also called human C2; huC2
T2 sequence: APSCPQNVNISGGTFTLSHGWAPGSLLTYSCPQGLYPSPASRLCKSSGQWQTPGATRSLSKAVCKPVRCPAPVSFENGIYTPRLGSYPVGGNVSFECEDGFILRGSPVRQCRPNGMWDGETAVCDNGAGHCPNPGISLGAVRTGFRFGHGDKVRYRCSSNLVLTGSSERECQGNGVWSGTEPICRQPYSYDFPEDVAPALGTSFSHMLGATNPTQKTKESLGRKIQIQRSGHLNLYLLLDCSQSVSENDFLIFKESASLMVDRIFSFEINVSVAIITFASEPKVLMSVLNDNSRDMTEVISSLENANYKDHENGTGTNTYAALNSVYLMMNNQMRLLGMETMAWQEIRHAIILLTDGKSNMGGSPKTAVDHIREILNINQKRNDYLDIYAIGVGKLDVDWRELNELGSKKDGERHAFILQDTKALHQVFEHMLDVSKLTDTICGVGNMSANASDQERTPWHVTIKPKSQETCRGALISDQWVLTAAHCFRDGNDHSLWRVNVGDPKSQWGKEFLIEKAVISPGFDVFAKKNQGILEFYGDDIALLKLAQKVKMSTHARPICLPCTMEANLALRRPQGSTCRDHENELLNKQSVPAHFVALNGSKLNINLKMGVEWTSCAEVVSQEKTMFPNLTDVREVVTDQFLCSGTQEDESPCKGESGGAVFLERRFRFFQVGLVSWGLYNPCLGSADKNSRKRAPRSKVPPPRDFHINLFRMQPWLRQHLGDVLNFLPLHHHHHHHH
As to the kind of experiment: SPR, mAb captured, C2 analyte, MHAs buffer, pH 7.3.
Experimental: (§1) Surface plasmon resonance (SPR, Biacore) was used for all binding affinity analyses. In brief, goat anti-human IgG was directly immobilised onto the carboxymethyl dextran surface of CM5 sensorchips to approximately 12,000 RU using standard NHS/EDC chemistry at pH 5. The immobilised antibody surface was pre-conditioned with ten injections of polyclonal human IgG (Privigen 60 s) prepared at 1 μg/mL. Ligands (anti-C2 mAbs) were captured at the beginning of each cycle as described below. An adjacent spot or flow cell in which only Polyclonal IgG was capture was used as a reference surface. The goat anti-human IgG Fc antibody surface was regenerate in 100 mM H3PO4, injected for 45 seconds at the end of each cycle. Experiments were performed at 37° C. and the flow rate of each experiment was kept constant at 30 μL/min.
This buffer contains ammonium sulfate instead of sodium chloride.

The target of assay [3] is T1, cynomolgus monkey C2. Put plainly: SPR, mAb captured, cyno C2 analyte, pH 7.3.
The target in assay [4] is T2, human complement C2. As to the kind of experiment: cell-based or functional assay.
Assay [5] deals with T1, cynomolgus monkey C2. Put plainly: cell-based or functional assay. This is another data set of the same source.
Assay [6] has as its target T2, human complement C2. As to the kind of experiment: cell-based or functional assay. This is another data set of the same source.
The next assay has as its target T3, mouse C2 (mouse, UniProt P21180 19-760, limits assumed).
T3 sequence (looked up): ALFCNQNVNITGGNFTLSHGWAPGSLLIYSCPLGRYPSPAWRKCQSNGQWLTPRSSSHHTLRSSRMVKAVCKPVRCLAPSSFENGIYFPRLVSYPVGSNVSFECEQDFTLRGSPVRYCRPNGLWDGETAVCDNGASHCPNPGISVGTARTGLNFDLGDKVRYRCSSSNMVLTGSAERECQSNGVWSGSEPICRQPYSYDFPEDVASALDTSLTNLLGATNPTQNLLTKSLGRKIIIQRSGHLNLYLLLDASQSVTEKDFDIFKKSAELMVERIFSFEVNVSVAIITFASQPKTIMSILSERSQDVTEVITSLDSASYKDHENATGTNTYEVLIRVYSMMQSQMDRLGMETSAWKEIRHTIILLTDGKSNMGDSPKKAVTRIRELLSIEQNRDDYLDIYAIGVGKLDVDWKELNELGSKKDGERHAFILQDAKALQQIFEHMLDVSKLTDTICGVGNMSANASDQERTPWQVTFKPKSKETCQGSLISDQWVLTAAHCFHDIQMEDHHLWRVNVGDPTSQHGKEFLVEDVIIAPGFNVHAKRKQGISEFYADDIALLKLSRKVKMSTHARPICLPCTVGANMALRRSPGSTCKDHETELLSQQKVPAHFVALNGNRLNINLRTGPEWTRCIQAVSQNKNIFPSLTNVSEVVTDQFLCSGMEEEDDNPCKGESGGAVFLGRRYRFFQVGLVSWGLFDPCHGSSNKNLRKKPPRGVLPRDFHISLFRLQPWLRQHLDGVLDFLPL
Put plainly: SPR, mAb captured, mouse C2 analyte, pH 7.3.

Assay [7] addresses T2, human complement C2. Put plainly: SPR, mAb captured, C2 analyte, HBS-EP, pH 6.0, steady state.
Assay [8] addresses T2, human complement C2. As to the kind of experiment: SPR, mAb captured, C2 analyte, HBS-EP, pH 7.3.
Assay [9] has as its target T4, human complement C2 zymogen (human, UniProt P06681 21-752).
T4 construct: also called huC2; human C2
T4 sequence: T2 sequence
Put plainly: SPR kinetics, captured antibody, analyte huC2 20 mM Ca^2+ (so in the source), pH 7.3.
Experimental: as §1
(§2) Calcium concentrations ranged from zero (i.e. no added calcium, control) to near physiological levels (0.02, 0.2 and 2 mM CaCl₂.2H₂O, MW 147.02 Da).

Assay [10] concerns the target T4, human complement C2 zymogen. As to the kind of experiment: SPR kinetics, captured antibody, analyte huC2 0 mM Ca^2+, pH 7.3.
Experimental: as §1, §2
Assay [11] shares this target. Put plainly: SPR, human C2 zymogen analyte, HBS-EP, pH 7.3, 37 C.
Experimental: as §1
(§3) Purified human C2 zymogen and human C2a were tested at concentrations ranging from 1.9 to 500 nM while human C2b was tested at concentrations ranging from 1.9 to 1000 nM. All experiments were performed in HBS-EP buffer supplemented with 0.1% BSA at 37° C. and pH 7.3. Each antibody was tested against human C2 zymogen and human C2a in duplicate and against C2b in quadruplicate. The flow rate was set to 30 μL/min. Each analyte concentration was tested in duplicate.
For assay [12] the target is unchanged. Put plainly: SPR steady state, captured antibody, analyte huC2 0 mM Ca^2+, pH 6.0.
Experimental: as §1, §2
Assay [13] shares this target. As to the kind of experiment: SPR steady state, captured antibody, analyte huC2 2000 mM Ca^2+ (so in the source), pH 6.0.
Experimental: as §1, §2
The target of assay [14] is T5, cynomolgus monkey FcRn/β2m (cynomolgus monkey, UniProt Q8SPV9 24-297; Q8SPW0 21-119, limits assumed).
T5 construct: injected in solution over immobilised antibody; also called Cyno FcRn/β2m
As to the kind of experiment: SPR, immobilised antibody, cyno FcRn/b2m analyte, pH 6.0; pH 6.0.
Experimental: Anti-C2 mAbs (1 μg/mL at pH 5) were immobilized on a carboxylmethyldextran (CM5) sensorchip surface using standard EDC/NHS chemistry. Human and Cyno FcRn/β2m (40 μM) were prepared in running buffer (10 mM HEPES, 150 mM NaCl, 10 mM MES adjusted to either pH 6 or pH 7.3) and injected on the immobilized anti-C2 surface at concentrations ranging from 0.078 to 40 μM, prepared in two-fold dilutions in running buffer. Association and dissociation phases were monitored for 180 and 600 seconds, respectively. […] Double referenced sensorgrams were fitted to either a 1:1 kinetic model (pH 6), including a term for mass transport limitation or to a 1:1 steady state model (pH 7.3) where responses at the end of the association phase were plotted against respective concentrations.
Binding to both human and cynomolgus monkey FcRn was tested using the SPR methods described above.

In assay [15] the target is T4, human complement C2 zymogen. Put plainly: SPR steady state, captured antibody, analyte huC2 200 mM Ca^2+ (so in the source), pH 6.0.
Experimental: as §1
(§4) Sensogram data was double-referenced against a reference anti-IgG surface (i.e. minus anti-C2 mAb) and blank buffer injections obtained within each experiment. The binding data was fit to 1:1 (kinetic or steady-state) model using local Rmax and null refraction index (RI=0) when appropriate. Buffers and solutions were filtered (0.22 μm) prior to use.
as §2
For assay [16], the target named is T6, human C2a (activated human C2) (human, UniProt P06681 244-752).
T6 construct: the whole entry is named here; also called huC2a
T6 sequence: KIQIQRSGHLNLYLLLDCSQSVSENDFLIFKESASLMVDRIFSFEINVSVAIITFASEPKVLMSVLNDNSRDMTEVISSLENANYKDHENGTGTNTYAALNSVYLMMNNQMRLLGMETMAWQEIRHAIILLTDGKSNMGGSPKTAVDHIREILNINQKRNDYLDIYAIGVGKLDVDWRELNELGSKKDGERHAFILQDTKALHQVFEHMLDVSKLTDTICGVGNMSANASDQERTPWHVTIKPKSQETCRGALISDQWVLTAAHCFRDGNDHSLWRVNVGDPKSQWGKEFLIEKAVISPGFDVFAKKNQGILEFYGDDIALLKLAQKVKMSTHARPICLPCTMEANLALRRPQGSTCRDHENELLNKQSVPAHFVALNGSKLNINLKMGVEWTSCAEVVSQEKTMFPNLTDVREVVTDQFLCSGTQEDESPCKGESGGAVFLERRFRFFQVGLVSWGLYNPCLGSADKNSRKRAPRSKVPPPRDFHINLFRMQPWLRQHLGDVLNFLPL
Put plainly: SPR, HBS-EP, pH 7.3, 37 C.
Experimental: as §1, §3

The target in the next assay is T7, human C2b (human, UniProt P06681 21-243).
T7 construct: the whole entry is named here
T7 sequence: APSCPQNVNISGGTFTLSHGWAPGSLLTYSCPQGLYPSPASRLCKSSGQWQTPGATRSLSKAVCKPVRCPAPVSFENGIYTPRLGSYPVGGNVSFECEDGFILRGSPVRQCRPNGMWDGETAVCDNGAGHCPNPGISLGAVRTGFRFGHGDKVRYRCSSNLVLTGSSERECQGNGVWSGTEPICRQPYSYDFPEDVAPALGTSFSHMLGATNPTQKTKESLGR
As to the kind of experiment: SPR, HBS-EP, pH 7.3, 37 C.

The target of assay [17] is T4, human complement C2 zymogen. Put plainly: SPR kinetics, captured antibody, analyte huC2 2000 mM Ca^2+ (so in the source), pH 7.3.
Experimental: as §1, §2
Assay [18] shares this target. Put plainly: SPR kinetics, captured antibody, analyte huC2 200 mM Ca^2+ (so in the source), pH 7.3.
Experimental: as §1, §2
Assay [19] has the same target. Put plainly: SPR steady state, captured antibody, analyte huC2 20 mM Ca^2+ (so in the source), pH 6.0.
Experimental: as §1, §4, §2

T5 sequence (Q8SPV9 24-297 limits assumed, chain 1 of 2): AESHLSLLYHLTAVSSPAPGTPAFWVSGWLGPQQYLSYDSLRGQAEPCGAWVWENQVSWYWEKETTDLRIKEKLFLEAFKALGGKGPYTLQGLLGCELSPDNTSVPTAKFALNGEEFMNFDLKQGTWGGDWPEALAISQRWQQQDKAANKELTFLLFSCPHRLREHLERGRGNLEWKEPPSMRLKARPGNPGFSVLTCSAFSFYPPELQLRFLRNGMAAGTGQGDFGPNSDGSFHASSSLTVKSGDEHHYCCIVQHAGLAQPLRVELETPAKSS
T5 sequence (Q8SPW0 21-119 limits assumed, chain 2 of 2): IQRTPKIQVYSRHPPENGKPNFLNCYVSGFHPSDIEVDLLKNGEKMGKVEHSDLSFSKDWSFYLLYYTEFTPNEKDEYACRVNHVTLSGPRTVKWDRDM
Experimental for human C2b: as §1, §3
Experimental for mouse C2: as §1
In addition to human C2, the pH dependent anti-C2 antibodies were also tested for their ability to bind to C2 from other mammalian species using the SPR methods described above in order to identify suitable surrogate species for in vivo testing. The antibodies were tested for binding at neutral pH against C2 from cynomolgus monkeys, mice, dogs, rabbits, rats, pigs, and sheep.

B1: RF16-203 (antibody, V domains shown)
VH: EVQLLESGGGLVQPGGSLRLSCAASGFTFSRYYMMWVRQAPGKGLEWVSSIGSSGGTTNYADSVKGRFTISRDNSKNTLYLQMNSLRAEDTATYYCAKGGMVLGVVNIWGQGTLVTVSS
VL: QSALTQPPSVSVSPGQTATITCSGDKLGEKYVSWYQQKPGQSPVVVIFQDIKRPSGIPERFSGSNSGNTATLTISGTQAMDEADYYCQTWGTGGIQVFGGGTKLTVLR
notes: Human antibody from a phage display library
As for B1, in the assay with cynomolgus monkey C2 [1], the “IC50, inhibition of cynomolgus classical complement pathway (Wieslab assay)” value came to 13.3 nM. Besides, the “IC50, inhibition of cynomolgus lectin complement pathway (Wieslab assay)” value with cynomolgus monkey C2 [1] worked out at 112 nM. Besides, the equilibrium dissociation constant (Kd) with human complement C2 [2] is 12.6 nM; with cynomolgus monkey C2 [3], 2.82 nM; in the assay with mouse C2, 153 nM; with human complement C2 [7], 73 nM; with human complement C2 [8], 2.5 nM. For the same molecule, the “IC50, inhibition of human classical complement pathway (Wieslab assay)” value with human complement C2 [4] was determined as 5.4 nM. For the same molecule, in the assay with human complement C2 [4], the “IC50, inhibition of human lectin complement pathway (Wieslab assay)” value came to 1.29 nM. In addition, the “IC50, inhibition of cyno classical pathway (hemolysis assay)” value with cynomolgus monkey C2 [5] worked out at 361 nM. In addition, in the assay with human complement C2 [6], the “IC50, inhibition of human classical pathway (hemolysis assay)” value worked out at 42 nM.

B2: RF16-226 (antibody, human IgG4 S228P, lambda)
heavy: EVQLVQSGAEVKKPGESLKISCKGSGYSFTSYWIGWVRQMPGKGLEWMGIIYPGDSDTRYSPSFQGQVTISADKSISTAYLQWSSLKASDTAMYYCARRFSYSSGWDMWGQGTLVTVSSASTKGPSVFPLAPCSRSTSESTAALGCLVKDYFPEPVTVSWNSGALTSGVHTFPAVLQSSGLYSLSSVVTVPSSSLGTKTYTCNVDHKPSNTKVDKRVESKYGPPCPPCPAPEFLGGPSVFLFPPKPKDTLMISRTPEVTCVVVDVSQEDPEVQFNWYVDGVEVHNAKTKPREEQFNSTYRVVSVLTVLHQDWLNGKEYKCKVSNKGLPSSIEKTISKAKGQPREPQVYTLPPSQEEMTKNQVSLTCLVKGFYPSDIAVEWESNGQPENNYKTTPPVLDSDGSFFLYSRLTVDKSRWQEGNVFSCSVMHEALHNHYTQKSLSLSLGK
light: SYELTQPPSVSVSPGQTARITCSGDALTSKYVAWYQQKSGLAPLLVIYEDTRRPSGIPAKFSGSSSGSVATLTISGAHGDDEADYYCYSTDASGHQRVFGGGTKLTVLSQPKAAPSVTLFPPSSEELQANKATLVCLISDFYPGAVTVAWKADGSPVKAGVETTKPSKQSNNKYAASSYLSLTPEQWKSHRSYSCQVTHEGSTVEKTVAPTECS
notes: Human antibody from a phage display library, unmodified Fc; also called WT
As to B2, the Kd in assay [9] amounted to 10.2 nM; in assay [10], 9.2 nM; in assay [11], 8 nM; in assay [12], 93.6 nM; in assay [13], 111 nM; in [14] it was 2100 nM. The Kd in [15] was determined as 94.2 nM; in [17], 11.1 nM; in assay [18] it was 9.3 nM; in [19], 87.4 nM. Also, the koff in assay [9] was 0.0057 s⁻¹; in [10], 0.00499 s⁻¹; in [17], 0.0062 s⁻¹; in assay [18] it was 0.0059 s⁻¹. Moreover, the kon came to 569000 M⁻¹ s⁻¹ in [9], 546000 M⁻¹ s⁻¹ in assay [10], 561000 M⁻¹ s⁻¹ in assay [17] and 631000 M⁻¹ s⁻¹ in assay [18]. Further, the binding result is recorded as “no binding (tested: C2a tested up to 500 nM)” in [16] and “no binding (tested: C2b tested up to 1000 nM)” in the assay with human C2b.
